Where no end group is shown, it is not given here.

Data on three molecules can be found in PMC4427524 (Molecular cell, 2015).

The test concerns the target purified recombinant WDR5 (used for FPA) (UniProt P61964 1-334). The experiment in a line: fluorescence polarisation. Background: In fluorescence polarisation assays a small probe gives low polarisation when free and higher when bound to something large.
With DEEEIDGVSV [MbIIIb mutant peptide V264G], the Kd (usually the free concentration of one partner at which half of the binding sites on the other are occupied at equilibrium, for simple one-to-one binding) is above 500 µM.

As for DEEEEDEESV [MbIIIb mutant peptide WBM (I262/V264/V265 to glutamic acid)], the Kd is above 500 µM.

Consider DEEEIDVVSV (also: FITC label (position not given here)) [FITC-labeled MbIIIb peptide (residues 258–267 of human c-MYC)], for which the Kd was 9.3 µM.
